T1: NURC1-FL (Arabidopsis thaliana, UniProt Q9LZ65 1-222)
T1 sequence: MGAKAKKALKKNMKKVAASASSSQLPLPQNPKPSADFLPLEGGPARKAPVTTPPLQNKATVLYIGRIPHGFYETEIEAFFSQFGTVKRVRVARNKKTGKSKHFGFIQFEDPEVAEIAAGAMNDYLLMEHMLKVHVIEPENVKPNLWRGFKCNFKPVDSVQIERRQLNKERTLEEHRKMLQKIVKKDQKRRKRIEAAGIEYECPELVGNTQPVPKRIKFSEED

T2: NURC1 1-160 (Arabidopsis thaliana, UniProt Q9LZ65 1-160)
T2 sequence: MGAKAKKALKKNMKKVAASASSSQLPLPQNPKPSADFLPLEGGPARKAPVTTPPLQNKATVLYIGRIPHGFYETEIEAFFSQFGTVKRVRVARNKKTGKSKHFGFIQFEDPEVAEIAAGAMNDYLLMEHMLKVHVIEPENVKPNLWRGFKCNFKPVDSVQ

B1: ITS2 82-162 (stem III) (structured_RNA)
RNA: GGAGCCAAGGACGCCUGGAGCGUACCGACAUGCGGUGGUGAACUUGAUCCAUUACAUUUUAUCGGUCGCUCUUGUCCGGAA
B2: ITS2 1-79 (stem I and II) (structured_RNA)
RNA: GGAUCGUCGUCCCUCACCAUCCUUUGCUGAUGCGGGACGGAAGCUGGUCUCCCGUGUGUUACCGCACGCGUUGGCCUAAUU

How the values were obtained:
[1] = tested on: NURC1 1-140 (Arabidopsis thaliana); assay: MST; details: MST: 10 nM labelled RNA, 20 mM Tris-HCl pH 8.0, 150 mM NaCl, 0.1 mg/ml BSA, 1 mM DTT, 0.1% Tween-20, room temperature, 5 min
NURC1-FL [2] = biological target: T1, NURC1-FL; assay: MST; details: MST: 10 nM labelled RNA, 20 mM Tris-HCl pH 8.0, 150 mM NaCl, 0.1 mg/ml BSA, 1 mM DTT, 0.1% Tween-20, room temperature, 5 min
NURC1 1-160 [3] = biological target: T2, NURC1 1-160; assay: MST; details: MST: 10 nM labelled RNA, 20 mM Tris-HCl pH 8.0, 150 mM NaCl, 0.1 mg/ml BSA, 1 mM DTT, 0.1% Tween-20, room temperature, 5 min
NURC1-FL [4] = biological target: T1, NURC1-FL; assay: MST; Kd only in figure/Table S5; MST: 10 nM labelled RNA, 20 mM Tris-HCl pH 8.0, 150 mM NaCl, 0.1 mg/ml BSA, 1 mM DTT, 0.1% Tween-20, room temperature, 5 min; details: protein: recombinant; tags: N-terminal 6xHis (pET-28a, NdeI/XhoI) removed with thrombin; label: Cy5-UTP incorporated (Cy5-UTP/UTP 1:15)
NURC1 1-160 [5] = biological target: T2, NURC1 1-160; assay: as above; details: protein: recombinant; tags: 6xHis (pET-28a) removed with thrombin; label: Cy5-UTP incorporated (Cy5-UTP/UTP 1:15)

Molecule | Kd [1] | Kd (NURC1-FL [2]) | Kd (NURC1 1-160 [3]) | binding result (NURC1-FL [4]) | binding result (NURC1 1-160 [5])
ITS2 FL | 938 nM | 228 nM | 116 nM | – | –
B1 | – | – | – | binds | binds
B2 | – | – | – | binds | binds
